Results: WO2014161570A1
Like-named read-outs stand apart in the source and are kept apart here.

T1: Human IL-17A (human) (UniProt Q16552)
T1 sequence: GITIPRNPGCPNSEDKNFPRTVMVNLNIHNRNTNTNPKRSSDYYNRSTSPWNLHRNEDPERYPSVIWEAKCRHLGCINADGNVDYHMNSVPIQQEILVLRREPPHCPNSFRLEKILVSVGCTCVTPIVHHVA


Columns and labels:
Assay in all cases: ELISA, IL-17A coated on plate, relative binding (Table 6a)
[1] = target: T1, Human IL-17A (human)
[2] = target: Cynomolgous IL-17A (cynomolgous)
[3] = target: T1, Human IL-17A (human); remark: listed apart in the source

| Relative binding to human IL-17A in % [1] [%] | Relative binding to cynomolgous IL-17A in % [2] [%] | Relative binding to human IL-17A in % [3] [%] | Molecule |
| --- | --- | --- | --- |
| 122 | 124 | – | eBio64CAP17 (antibody) |
| – | – | 127 | <IL17> 9C6-2B6 (mouse clone) (antibody, V domains shown) VH: QVQLKESGPGLVAPSQSLSITCTVSGFSLDSYGVHWVRQPPGKGLEWLVVIWSDGTTTYNSALKSRLSITKDNSKSQVFLKMNSLQTDDTAIYYCARDTHYRLYYYAMDYWGQGTSVTVSS VL: DVVMTQTPLSLPVSLGDQASISCRSSQSLVHSNGDTYFHWYLQKPGQSPKLLIYKVSNRFSGVPDRFSGSGSGTDFTLKINRVEAEDLGVYFCSQTTHAPFTFGSGTKLEIK |
